The DeepSol protein solubility set

Experiment: soluble on expression in E. coli; label from the status in PepcDB or PDB records

Sequence	soluble on expression in E. coli
MISRIHIEEFRDIGDLELFFLPGVNLLIGDNGSGKTSVLKACQYVLGTFFCGFKMDHTPTWTQLTPEAKDFRRRVSSDGDELMKHPIKFNFDLRYEENGQNPIELTDQILTKRNTLGRALTTTFQDHQDYTKGLLEGYATDEGRYRPLPVFVFYSVEDIHTKRKVSHSLFQKYRHMASFGYYHALTENAFLDFWIKRMLILREEEQAGNHELAVVRGALLSALGTDGAGVLQDLSIRINKKAVYWKLLDGREISSEHLPDGLRRVISIVVDLAFRCALLNQTLYQSDSALKSEGTVLIDEIDLHLHPRLQASILKGLRKAFPRLQFIITSHAPMVMSSVDADDKYNIVYKMSYNQEMSQYEALKQSTYGLDVSTIMRMILGLAPRDKQVDERLTHLFDLIDLEKYSEATIALQSLQDQFDDSLPELSKASVMLHFLSSEQNEENH	not soluble
GMASIKGEVDEIANYGNLKITKEEERVNITGDLEKFSSLEEGTIVTRFNMNDTSIQSLIGLSDGNKANNYFSLYVSGGKVGYELRRQEGNGDFNVHHSADVTFNRGINTLALKIEKGIGAKIFLNGSLVKTVSDPNIKFLNAINLNSGFIGKTDRANGYNEYLFRGNIDFMNIYDKPVSDNYLLRKTGETK	soluble
MNTNNALMQRRHNAVPRGVGQIHPIFAERAENCRVWDVEGREYLDFAGGIAVLNTGHLHPGIVSAVEAQLKKLSHTCFQVLAYEPYLALCERMNQKVPGDFAKKTLLVTTGSEAVENAVKIARAATKRSGAIAFSGAYHGRTHYTLSLTGKVHPYSAGMGLMPGHVYRALYPCPLHNISDDDAIASIERIFKNDAAPEDIAAIIIEPVQGEGGFYAASPAFMQRLRALCDQHGIMLIADEVQSGAGRTGTLFAMEQMGVAADITTFAKSIAGGFPLAGVTGRADVMDAIAPGGLGGTYAGNPIACAAALAVLDIFEQENLLQKANTLGKTLRDGLMEIAETHREIGDVRGLGAMIAIELFENGDPGKPNAALTADIVTRAREKGLILLSCGPYYNILRILVPLTIEASQIRQGLEIIAQCFDEAKQA	not soluble
MTWFIDRRLNGKNKSMVNRQRFLRRYKAQIKQSISEAINKRSVTDVDSGESVSIPTEDISEPMFHQGRGGLRHRVHPGNDHFVQNDRIERPQGGGGGSGSGQGQASQDGEGQDEFVFQISKDEYLDLLFEDLALPNLKQNQQRQLTEYKTHRAGYTANGVPANISVVRSLQNSLARRTAMTAGKRRELHALEENLAIISNSEPAQLLEEERLRKEIAELRAKIERVPFIDTFDLRYKNYEKRPDPSSQAVMFCLMDVSGSMDQSTKDMAKRFYILLYLFLSRTYKNVEVVYIRHHTQAKEVDEHEFFYSQETGGTIVSSALKLMDEVVKERYNPAQWNIYAAQASDGDNWADDSPLCHEILAKKLLPVVRYYSYIEITRRAHQTLWREYEHLQSTFDNFAMQHIRDQDDIYPVFRELFHKQNATAKGLEHHHHHH	not soluble
MAKIVLVLYDAGKHAADEEKLYGCTENKLGIANWLKDQGHELITTSDEEGGNSVLDQHIPDADIIITTPFHPAYITKERIDKAKKLKLVVVAGVGSDHIDLDYINQTGKKISVLEVTGSNVVSVAEHVVMTMLVLVRNFVPAHEQIINHDWEVAAIAKDAYDIEGKTIATIGAGRIGYRVLERLVPFNPKELLYYDYQALPKDAEEKVGARRVENIEELVAQADIVTVNAPLHAGTKGLINKELLSKFKKGAWLVNTARGAICVAEDVAAALESGQLRGYGGDVWFPQPAPKDHPWRDMRNKYGAGNAMTPHYSGTTLDAQTRYAQGTKNILESFFTGKFDYRPQDIILLNGEYVTKAYGKHDKK	soluble
MAQSVPPGDIQTQPGTKIVFNAPYDDKHTYHIKVINSSARRIGYGIKTTNMKRLGVDPPCGVLDPKEAVLLAVSCDAFAFGQEDTNNDRITVEWTNTPDGAAKQFRREWFQGDGMARRKNLPIEYNP	not soluble
MYLSRITLHTSELSPAQLLHLVERGEYVMHQWLWDLFPGSKERQFLYRREELQGAFRFFVLSQEQPAASAIFDVQTRPFAPTLSAGQTLRFNLRANPTVCKNGKRHDLLMEAKRQRKTQGDSQDIWSYQQQAALTWLARQGEQNGFTLREASVDAYRQQQIRRGKDRQMIQFSSVDYTGVLVINEPALFLQRLAQGFGKSRAFGCGMMMIKPGDDA	not soluble
MAHHHHHHMTELVPEAEVTFNCGSPSFPYVRVYRCFKTTNSGMLYRLEDDKGRWAFYNDTPLTVFNVYVKFNADSVVTSDTDVALEMTQGEWDYWATTVVLPGHTQRFVEGTISSFLLNFASEGELAKDVTFVNGTPTVGYDRVYRCFKQNANGMLFRLVKVERPGNECVWNFYNDSRELSVEVELTLIEKDSAKPLGDTQVIPPPDGVGVALYKIVVPPLKTVPFLRGHPRFSKQSYVAKSMYDENMLDASEITFENGQPDRAVIDYPRTKVFRGFNNNGNGLAFLLVDPEEKKWAFYNDTTNYNVTATVRFAAGSVYKAAANTRVEVDPAVEGGTVCTITVMPLATELFITEGNPEQYQISLSAECSTGPKPEENPDYQNGQPDTKVMLRWEKVYRCFKNRGNGLLFRLVGDNDRRWGFYNDTTDFIFTVTVSFENGETVKTLGNTSVSEDPELGKVFTLEVAPLSTEVFVFGDLSGYKTRFAARSVRCA	not soluble
SRMEQVIVKQGKDALTADAVFVSANPLSDSLLKSTEQLERSVMTRFSTMAFSDNGMQLISVRGVDESYPLMGELVLDGNESGRVKPNQLWLDERIMAQLEVTKGDNVTIGDADFTVSGAVLMEPGLSFNPFQQMPAAYIHQSDVEKTGAIQVGSRVQYRLFLKADNAALKQLQDKTELSPSDRWRTQDTASRSNEVFDRTTQ	not soluble
MSHQCSLSELNENLVPFTARQIKSSLIWCAEDVRNPDELQNACSYIIDPGSTASAKVFHAERYGGSGIQRNGGGARCGFDGNYQVKGIGSNPLVGEGTDERHSNGALGAVHAIYEALWGEVLAQILPYSAVRVRAVLLTDLYTEKAFERSGRKSRRALLVREPVVRPAHFERAPYFQVKPEYSSLLIHDACRVRSVIHKLPGYLPVPPEEIDAEARTDPRIYCIEGLCELARREAWQMAFCRTRFLRLTTSPSNIAMDGRLMDFNGLSCLFPGDSPADFGYKLRLAELAKEPMVLMQGLSDLCLYIGKYMFDPDFTLAARLKVEEIFQKTFHEACYYCYLELLGIPGEFITQKEIPDILKELVNSFVALLNKYYEKSHAQDIVNQDGSPLQKLVVTLIHHRHNQKQALNSSIKNDVYFTVAQQCFSQAIHWLTQGSTRRQINASLLLKEIEHHTMKRLQPREELRKENMCEKIAILLDNHGDDPLFLQEAISDMKNFMLKFSRDAFGYLEPIRNTV	not soluble
MQGKLNCEIEMEVQIFTHKNCVECNMLLEYLENKGLLGKVKIIDTELYPFLAFEKGVISTPSIFIDGKLVYAGIVDFEEFERILSGQKVTKQIDKASLVEKLMLGIVDSFAATAWLYINRDFDSFLAQKDFVMAVTGLSLLDEREGDEYYNYLRNVMVKEGDRYLEEWKPRMLRNISSNFIREIFWLYERKISKETLTQKYPVEVFAHWLMIRSGAVGRVGLRIYPLSDSTVMKRVLEAYNFMLENYDEIFNKVQKEQMELKTKNKEQVRYLQL	soluble
MAHHHHHHMLANYDYESDLRGRTDELGRAQHVDAYDKHPTFLESPYAGQEDLLRDAPQSYMDGPPPGYGGHDAYEHVDMNGGGYDLPLQPQAQTQAVDTRRLSKDRLARGGLNIFSWSTDAPTLNHPREVRERDCAELQRLRPVDSAAQRDKEVREKFEGNTQSRFLCFSESDSPGKRRGVRVFNPNNKNGNLNSGTGHENPIQNRFNEEPQPFKIRQQQPRPLPQQNLPPAGRATHSNRQESGGIPGFAGMGEGRQHNARRGRGSYRG	soluble
